The values that follow are results of earlier work, collected in publication PMC2033707.

The target of this data set is EGF (UniProt P01133).
Sequence of UniProt P01133 (P01133 971-1023): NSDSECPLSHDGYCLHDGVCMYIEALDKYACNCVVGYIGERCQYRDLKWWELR

What is called Kd is a measure of binding affinity in units of concentration. On to EGFR (from UniProt P00533), for which the Kd is 1 nM.
